B1: DOA4-independent degradation protein 4 (Saccharomyces cerevisiae), P36108 (parent)
chain: MSLFEWVFGKNVTPQERLKKNQRALERTQRELEREKRKLELQDKKLVSEIKKSAKNGQVAAAKVQAKDLVRTRNYIQKFDNMKAQLQAISLRIQAVRSSDQMTRSMSEATGLLAGMNRTMNLPQLQRISMEFEKQSDLMGQRQEFMDEAIDNVMGDEVDEDEEADEIVNKVLDEIGVDLNSQLQSTPQNLVSNAPIAETAMGIPEPIGAGSEFHGNPDDDLQARLNTLKKQT
partner: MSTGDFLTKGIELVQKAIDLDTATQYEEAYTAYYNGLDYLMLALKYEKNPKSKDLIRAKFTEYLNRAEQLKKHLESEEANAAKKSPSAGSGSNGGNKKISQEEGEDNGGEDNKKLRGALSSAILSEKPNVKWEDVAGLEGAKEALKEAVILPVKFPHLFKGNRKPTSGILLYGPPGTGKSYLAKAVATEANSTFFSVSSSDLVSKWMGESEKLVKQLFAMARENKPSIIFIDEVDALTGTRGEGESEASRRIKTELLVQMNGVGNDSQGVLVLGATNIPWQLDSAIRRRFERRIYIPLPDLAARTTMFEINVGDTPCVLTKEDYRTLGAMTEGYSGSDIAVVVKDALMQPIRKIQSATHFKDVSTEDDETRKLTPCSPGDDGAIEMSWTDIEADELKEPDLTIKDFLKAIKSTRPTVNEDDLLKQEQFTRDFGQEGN

Variants of: B1
Settings: with vps4_yeast VPS4, P52917

Effect of a mutation on the interaction, disrupting interaction strength:
L228D
R224D
L221D
K229D
L225D
